# Reference: publication PMC4174439 (RNA, 2014)
# B1: Cd-HfqHis6 (Clostridium difficile Hfq bearing a C-terminal His-tag) (natural protein, Clostridium difficile strain 630, UniProt Q187T2 1-86, looked up)
# chain: MKNTVLNLQDLFLNNARKERIPVTIYLVNGVQVKGLVKGFDSYIILIEGDNRQQNMIYKHAVSTIQPGKYINLTNQNQNNNNNNNR
# Molecular target: the molecule itself
# Test: SDS-PAGE
protein,measurement,value
B1,stoichiometry N,6
